Data: the supplement of paper PMC10567573

B1: HESX1 (parent)
chain: ENKPSTCSFSIERILGLDQKKDCV
B2: ZC3H15 (parent)
chain: RKADFKAGKALVISGREVFEFRPE

Variants of: B1
Assay: protein stability index of a GFP-peptide fusion (GPS, HEK-293T) (PSI 1-6); higher = more stable
Settings: c terminus: a fixed tail appended
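Further: lentivirally expressed fusions sorted by FACS into six bins by GFP to DsRed ratio, PSI derived from sequencing read proportions per bin multiplied by bin number.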

Protein stability index: each site, then its substitutions
E1: S 2.37, A 2.61, H 2.73, W 2.37, N 2.77, L 2.13, I 2.68, F 1.92, C 2.27, T 2.85, Y 1.95, M 2.45, G 2.32, R 2.79, P 2.79, V 2.32, D 3.29, Q 2.28, K 1.68
S8: C 4.28, Y 2.66, T 3.52, W 2.14, D 3.88, E 4.18, R 2.79, L 3.07, N 3.07, A 3.46, M 3.73, F 3.04, P 4.2, Q 3.23, V 3.1, K 2.94, I 2.83, G 2.51, H 2.7
N2: W 1.91, H 2.57, T 2.91, R 2.88, L 2.79, P 2.82, K 3.37, C 2.57, M 2.53, A 2.15, S 2.87, D 2.94, Y 1.77, G 2.49, Q 2.93, I 2.32, F 1.97, E 3.52, V 2.88
K3: H 3.42, M 2.92, Y 2.83, D 3.66, L 2.35, P 3.17, V 2.71, G 3.1, S 3.84, E 3.85, Q 3.41, F 2.16, W 2.93, I 2.84, R 2.58, A 3.59, T 2.53, C 2.78, N 3.04
F9: H 4.15, C 3.43, D 4.24, A 3.86, G 4.43, S 3.97, N 4.2, L 4.07, P 5.09, Q 4.3, T 4.45, E 4.41, W 2.42, K 4.3, I 3.43, M 2.79, R 3.88, V 4.09, Y 3.52
S10: I 2.62, P 4.28, T 4.07, H 3.5, K 3.77, C 2.38, A 2.86, D 4, E 3.01, W 2.76, Q 3.26, R 2.71, F 2.84, Y 2.8, G 3.27, V 2.29, M 2.48, L 3.05, N 3.27
C7: Q 3.96, W 2.33, G 3.87, S 3.98, N 4.05, L 2.94, R 3.92, A 3.58, D 4.13, I 1.84, E 4.23, F 3.11, H 3.91, V 3.17, M 3.32, K 3.52, P 4.01, Y 3.43, T 3.74
T6: I 2.9, P 2.77, A 3.46, Q 3.12, R 2, F 2.85, V 2.71, D 3.96, M 2.37, S 3.12, L 3.14, K 2.41, G 3.5, N 3.06, W 2.53, C 2.43, E 3.39, Y 3.16, H 3.24
P4: W 2.54, M 2.99, T 3.67, F 2.62, Y 1.94, C 2.42, H 2.52, A 2.99, D 3.86, N 2.79, S 2.71, I 3.02, Q 3.18, V 3.35, K 2.7, R 3.41, G 2.84, L 2.86
S5: V 2.5, Q 2.89, W 2.13, A 2.94, C 2.71, L 2.18, T 3.42, R 2.56, G 3.31, D 3.16, P 3.48, E 3.77, H 2.81, F 1.96, I 3.02, N 3.09, M 2.75, Y 2.54, K 2.85

Variants of: B2
Assay: as above
Settings: c terminus: a fixed tail appended

Protein stability index, by site and new letter:
V18: C 2.95, D 3.69, T 3.32, W 2.86, H 3.22, F 2.68, R 3.58, A 3.33, E 3.89, G 3.37, N 3.61, I 2.95, K 3.56, M 2.8, Y 2.74, P 3.05, S 3.34, Q 3.46, L 2.72
P23: L 1.61, C 2.42, M 2.09, D 3.82, G 3.18, I 1.35, H 2.62, R 2.73, F 2.27, Y 1.9, W 1.24, K 3.35, Q 3.31, E 3.38, S 3.44, N 3.53, T 3.17, V 1.94
E17: V 2.25, W 2.12, M 1.14, P 2.66, T 1.75, I 1.64, S 2.06, Q 1.96, Y 2.19, L 2.04, K 2.08, R 2.67, N 2.57
E20: Q 2.74, P 2.62, C 2.68, W 1.61, D 3.37, G 3.1, K 2.68, V 2.34, Y 1.66, L 2.51, T 2.73, S 2.1, H 2.13, N 2.81, A 2.5, R 3.14, F 1.96, M 2.27, I 1.71
F21: E 4.46, C 3.78, H 3.57, R 3.48, M 3.29, K 3.58, L 2.82, Q 4.23, D 4.04, W 2.85, S 3.91, Y 3.21, N 3.73, A 3.05, P 3.69, V 3.5, T 3.73, G 4.2, I 2.68
R22: K 3.24, L 2.35, M 3.54, D 3.72, C 2.24, N 3.07, F 2.98, A 3, H 2.72, Q 3.83, P 3.25, W 2.39, T 3.03, G 3.4, E 3.53, Y 2.84, I 2.81, V 2.78, S 3.29
E24: H 2.18, I 1.94, Q 2.84, S 2.78, N 2.84, A 2.69, F 1.85, T 2.52, L 1.9, G 2.12, M 2, C 2.22, Y 2.17, W 1.84, R 2.43, K 2.31, V 2, D 3.11, P 2.44
F19: P 4.08, G 3.7, W 2.43, S 3.51, H 4.13, N 4.05, M 3.43, A 4.01, Y 2.75, C 3.76, I 3.51, L 3.33, V 3.25, D 4.68, Q 3.63, R 4.24, T 3.7, E 4.23, K 3.47
